This series concerns the molecule itself. Put plainly: crystal structure.

B1: human anionic trypsin (TRY2), enterokinase activated, cleaved at the Arg122-Val123 bond (enzyme)
chain 1: IVGGYICEENSVPYQVSLNSGYHFCGGSLISEQWVVSAGHCYKSRIQVRLGEHNIEVLEGNEQFINAAKIIRHPKYNSRTLDNDILLIKLSSPAVINSR
chain 2: VSAISLPTAPPAAGTESLISGWGNTLSSGADYPDELQCLDAPVLSQAECEASYPGKITNNMFCVGFLEGGKDSCQGDSGGPVVSNGELQGIVSWGYGCAQKNRPGVYTKVYNYVDWIKDTIAANS
With B1, the binding result is “binds”.

Source of the values: article PMC9239388 (Journal of Inflammation Research, 2022).
